Experimental data published in the supplement of paper PMC9170038.

System: MS2 coat protein
Experiment: apparent KD of MS2 coat protein; designed switch direction (-1 OFF switch, 1 ON switch): -1; higher = weaker reporter binding
Summary of the method: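 Apparent KD, taken as the median over clusters for each design, was obtained by curve-fitting normalised cluster fluorescence. Designed RNA switches had been transcribed on Illumina chips by stalled E. coli RNA polymerase and titrated with SNAP-549-labelled MS2 coat protein, doubling from 0.7 or 1.5 nM to 3 µM.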

[1] = input ligand: microRNA oligo, concentration not stated
[2] = Eterna round: R95, input ligand: FMN 200 uM
[3] = Eterna round: R95, input ligand: microRNA oligo, concentration not stated
[4] = Eterna round: R95, input ligand: none

Sequence	apparent KD of MS2 coat protein (input ligand: FMN 200 uM) [nM]	apparent KD of MS2 coat protein [1] [nM]	apparent KD of MS2 coat protein (input ligand: none) [nM]	apparent KD of MS2 coat protein [2] [nM]	apparent KD of MS2 coat protein [3] [nM]	apparent KD of MS2 coat protein [4] [nM]
AUCAGCUCGUGAGGAUAUACAUGAGGAUCACCCAUGUGAUCAAUAGCAGCUUCGGCUGCAUUAAUGUAGAAGGUACGAGCUGAU [ENG2/5-C3] (Eterna round: R96, puzzle: Exclusion NG 2)	114	216	961	–	–	–
AAUAGUCGGUAGGAUAUCCACGGAUGACCGGCAGGAGAAGGGCCGACUUGAGGAUCACCCAAGUAUGGUCCAAC [Ortiqumate] (Eterna round: R97, puzzle: Exclusion 6)	25.1	–	13.9	–	–	–
GUGGGUUACAUGAGGAUCACCCAUGUAUAGUGGGAAGAGAGAUAGGAUAUGAUGUGAGAAUUAUAUUAGAAGGAUCGAGACUAG [AK ExNG3-2.6] (Eterna round: R96, puzzle: Exclusion NG 3)	632	236	351	–	–	–
CAUACAGUAGUCAGGAUAUUGCAACACACACGGAACGAGAAGGGACAUGAGGAUCACCCAUGUAUACUGUAAAG [EX-4 Malc #5] (puzzle: Brourd's mod of Exclusion 4)	–	–	–	16	21	24.7
GCUUAACAUGAGGAUCACCCAUGUUAGGAUAUGCGAACUCGUAAGAUGCAGGGAGAUUGCAGAAGGAACGUGGC [EX1 C.15] (Eterna round: R97, puzzle: Exclusion 1)	22	–	18.2	–	–	–
UUCUUUGUUGUGAGGAUAUCGUAUUCUUUUUGUUACGAGAAGGCACAUGAGGAUCACCCAUGUUUCUUGAUGUU [JR_BMOE4_Sub068] (puzzle: Brourd's mod of Exclusion 4)	–	–	–	–	16.7	–
GAUUGACAUGAGGAUCACCCAUGUGAGGAUAUCGGCCGGAUCUUGUUAGCUUCCAUCGCGAGAAGGCACAUAGG [Exclusion 1 V33] (puzzle: Exclusion 1)	–	–	–	–	55.2	–
AAGUACCGGUGAGGAUAUUUAUAAUAGAGCUUUAUGAUAUACAUGAGGAUCACCCAUGUUACUUUAAAGAAGGCAUCGGAUUAA [Mat - Exclusion NG 2 - Mod of JL - D92] (Eterna round: R96, puzzle: Exclusion NG 2)	19.2	11.1	18.1	–	–	–
CAGUACUACAAGCUUCGGGACAUGAGGAUCACCCAUGUUCGUCUUAUUGAUCUAGGUACGCUGACGUACCUAGAUCU [JL-sv1-2.13 Brourd mod] (puzzle: Sensor v3, turn-off variant 1)	–	–	–	18.6	32.4	16.1
AUUGAUAUUGAGGAUAUGCUUUUAUUUGAACAAGCAGAAGGCGAUACAUGAGGAUCACCCAUGUUUAUGGAAGU [JR_E6_Sub087] (puzzle: Exclusion 6)	–	–	–	51.6	37.6	49.4
AAGUCGAGCGUGAGGAUAUUGACCGGACGACCCAUCGAGAAGGCACAUGAGGAUCACCCAUGUGAUUCAGCUCA [Brourd's EX4 #52] (Eterna round: R97, puzzle: Brourd's mod of Exclusion 4)	23.2	–	15.5	–	–	–
AGCUGUGGCCGAGGAUAUCUACUAAUCCAAACCGAAAUAUAAUCGGACAUGAGGAUCACCCAUGUAGAGAAGGCGGUCUCAGCA [Eli eng2 - 076] (Eterna round: R96, puzzle: Exclusion NG 2)	–	199	–	–	–	–
AGUACUAUCACGAAAGUGAUAGUACGAGGAGCAAGUGGAACAUGAGGAUCACCCAUGUCCUCAUCUGCUCGUCUUAU [salish99-s2-v2-x008] (Eterna round: R96, puzzle: Sensor v2, turn-off variant 2)	13.5	172	16.3	–	–	–
GCUCAACAUGAGGAUCACCCAUGUCAGGAUAUGCGAAUUUCAUCAAAAGAUGAAAUUUGCAGAAGGGACUAAGC [Omei Ex1 A32] (Eterna round: R97, puzzle: Exclusion 1)	114	–	52.6	–	–	–
CCCUCACAUGAGGAUCACCCAUGUCAGGAUAUAGUGCGAUUGUCGAUAUGAAAUUGCAUUAGAAGGGAUUAGGC [Eternabot (L1) Solution 67] (Eterna round: R97, puzzle: Exclusion 1)	24.8	–	17.5	–	–	–
AGUUGGGCAGGAUAUACAUGAGGAUCACCCAUGUGAGAGAUACUAGUGAGGUCGAUUAGUAGAAGGGCCUGACA [Mat X3R4 m2] (Eterna round: R97, puzzle: Exclusion 3)	251	–	40.9	–	–	–
UUUUAACAUGAGGAUCACCCAUGUGAGGAUAUCGAAAUUUAUAUUAAUAUUUAUUAUACGAGAAGGCACAUUUU [JMF 62] (puzzle: Exclusion 1)	–	–	–	–	77.5	–
UUACCUAGUGUUAGGAUAUGCGACGGGUGACCGUUGCAGAAGGAACAUGAGGAUCACCCAUGUUUAAUAAAAUC [JL-BMX4-4.45 ViennaUCT mod] (Eterna round: R97, puzzle: Brourd's mod of Exclusion 4)	53.1	–	12.6	–	–	–

Sequence	apparent KD of MS2 coat protein (input ligand: FMN 200 uM) [nM]	apparent KD of MS2 coat protein [1] [nM]	apparent KD of MS2 coat protein (input ligand: none) [nM]	apparent KD of MS2 coat protein [2] [nM]	apparent KD of MS2 coat protein [3] [nM]	apparent KD of MS2 coat protein [4] [nM]
GAAUAACAAGUGAGGAUAUGGAGUUGGGAGCCAGUUCAGAAGGCACAUGAGGAUCACCCAUGUGAACCGCAGCU [Eternabot (L2) Solution 45] (Eterna round: R97, puzzle: Brourd's mod of Exclusion 4)	16.9	–	14.5	–	–	–
AUACUCUUUGUGAGGAUAUCGUUUUCUUUACGGUUCGAGAAGGCACAUGAGGAUCACCCAUGUUUGACGUGAAU [JR_BMOE4_Sub094] (puzzle: Brourd's mod of Exclusion 4)	–	–	–	–	21.2	–
ACAUGUUAUCCAUGAUAUCACAUGAGGAUCACCCAUGUUAAGGCGAUUUUGAGGUGUAAGCUUUGUGCUCGACUUAU [JR_STOV1_Sub055] (Eterna round: R97, puzzle: Sensor, turn-off variant 1)	107	–	78.8	–	–	–
UUUAUACAUGAGGAUCACCCAUGUGAGGAUAUGCUUUAUUAUUAUUAUUAUUAUUAUUGCAGAAGGUACAUUAU [LRO-Excl01-14] (Eterna round: R97, puzzle: Exclusion 1)	35.7	–	37.7	–	–	–
AGCAUCUGAGGAUAUACUGGGUAUGGAAGGCGAAGGGCCAGACAUGAGGAUCACCCAUGUAGAAGGCAGUUUGC [Esenonan] (puzzle: Exclusion 2)	–	–	–	–	78.4	–
GCAGCAUAGUCCAAAUAGGACAUACAUGAGGAUCACCCAUGUCAGGAUAUGGUCUGGAUUACAGGCCAGAAGGGACGAAGCUGC [Eli exng3 - 005] (Eterna round: R96, puzzle: Exclusion NG 3)	18	16.4	22.6	–	–	–
UAACUACAUGUAGGAUAUGCGUGGCGAAGCUAUGCAGAAGGACAUGAGGAUCACCCAUGUUUUAGCGUCUGCGUACAGAUGCGU [JL ENG1 1.50] (Eterna round: R96, puzzle: Exclusion NG 1)	34.8	13.1	19.1	–	–	–
GAAUAGCGAGGAUAUGCAAUGAAGAUCGUACGAUAUGGCUGACAUGAGGAUCACCCAUGUAGAAGGCGCUGAUC [EX2 #14] (Eterna round: R97, puzzle: Exclusion 2)	55.1	–	53.7	–	–	–
UAACGUGGCCUGAUCCUCCCUAACAUGAGGAUCACCCAUGUCUAGGAUAUCCGAACAAACAACGAGGAGAAGGAGACGAAACAU [Veleedan] (Eterna round: R96, puzzle: Exclusion NG 3)	37.5	22.7	28.3	–	–	–
AGGGAGCGAGGAUAUACAGAGUAAGAAACUACUCCCUCAGUACAUGAGGAUCACCCAUGUAGAAGGCGCCCGAC [EX2 A.2] (Eterna round: R97, puzzle: Exclusion 2)	33.7	–	20.9	–	–	–
CACCCACAUGAGGAUCACCCAUGUGAGGAUAUGAUACUAUGUACUUCGGUACAUAGUAUCAGAAGGCACAGGUG [Ex1-3: 61] (Eterna round: R96, puzzle: Exclusion 1)	102	25.7	28	–	–	–
AGAUUGCAUGAGGAUAUCGUAUUAGAUAUAAUGCGAGAAGGCAUGACAUGAGGAUCACCCAUGUAGUGUUGGGA [JR_Ex6_Sub012] (Eterna round: R97, puzzle: Exclusion 6)	75.1	–	52.6	–	–	–
GUAUGUAACUAGGAUAUCAGCAUACUUCAAUGUUGAGAAGGAGUUACAUGAGGAUCACCCAUGUAUCCAACAUG [Exclusion 6 - 3:b] (puzzle: Exclusion 6)	–	–	–	43.4	52.5	69.1
CAUGUCUGAGGAUAUCGUUUUUUGUACAUGAGGAUCACCCAUGUCCUAUUUUUUAUAUUACGAGAAGGCAGUGGAU [JR_E5_Sub091] (Eterna round: R96, puzzle: Exclusion 5)	27.9	27.8	39.2	–	–	–
UCGGCGCGAGGAUAUACGUUUGCGCUUUUUCGUUUUUGCGUACAUGAGGAUCACCCAUGUAGAAGGCGCGCCGC [Apr-15 SS2-17] (puzzle: Exclusion 2)	–	–	–	–	14	–
UUUUAACAUGAGGAUCACCCAUGUGAGGAUAUCGAUAUUUUUAUUAAUAUUAAUAAAACGAGAAGGCACAUUUU [JMF 15] (puzzle: Exclusion 1)	–	–	–	–	65.4	–
AGUACUAUGCGAGCUGACUUGCGUAGUGCAGCAGGUGGAACAUGAGGAUCACCCAUGUCCUCAUUUGCUCGUCUUAU [Mat - Sensor v3 - Turn-off var 2 - D4] (puzzle: Sensor v3, turn-off variant 2)	–	–	–	30.2	120	26.8
